# Assay results: the DeepSol protein solubility set
# Assay: soluble on expression in E. coli; label from the status in PepcDB or PDB records
row,Sequence,soluble on expression in E. coli
1,MYSPKRVKLNVTSGMRKRPETGENNDDLYPPTALARNGISPYFIGKPRRKIVVETPSDSAQQQPPFKSRSQQNGLDDELDGIIIDEDEDRTVDVSFSQKQDTRKLKSRPFLGEKSSFKLGEIPKPKEEKRREEPFTMRGFDFGSDDKVTKIRDKICDIVDPTNARRTDPNFIRQMHENTLKGIEVASNPHFKKTRAPTKNRAAIQNTLGTLYPSFTTAAGQDPQNSKFQVPLDRQSSSQSIGSLAGIPPARRAPDIPKRCSNPLIRKAMGMDTEGGGKDEKMSGLRAEPTLKHFDENIISLIESEIMSVNNEIGWADVAGLEGAKKALREIVVLPFKRPDVFTGIRAPPKGVLLFGPPGTGKTMIGRCVASQCKATFFNISASSLTSKWVGEGEKLVRALFSVARLKLPSVIFIDEIDSLLSSRSESEHESSRRIKTEFLVQLDGVNTAPDERLLVLGATNRPQELDEAARRRFQKRLYIALPEPESRTQIVQNLLVGTRHDITNHNLERIRELTDGYSGADMRQLCTEAAMGPIRDIGDDIETIDKDDIRAVTVMDFAEAARVVRPTVDDSQLDAYAAWDKKFGCLPPPSISR,not soluble
2,MSLAETWDMPLAYSGSNFHSVTAAEFGNCVTTGTGGEIEIVTHPSGSLFKGADIKRAVQTGQAPIGERLLSGHQNENALFGFDSVPFLATSFDDADKLWKAAKEPLSALLAEQNLTLLYSVPWPPQGLYFKNEVNAVADMKGIKFRSYNNATSRLAELTGMLPVTIEAAEISQAFATGVADSMISSGSTGYDRKVWESLNYFYEVDAWLPRNYVFVNSDVWSGVSDQNKNVIQACAGLAEYAGNWRSKEYTGFTLQGLRDGGMTVGPASDQLVGELKEIGVTMTSEWLEAAGDQGKAIVDAFKAEGHHHHHH,not soluble
3,MGSDKIHHHHHHLQKYLSILRNSPFFKGLADNEILSILHCVNATTISKKRDSYIFRAGDITEVMGIVVSGCVLIIQEDIWGHRNILSKCHAGDFFGEPYAASQRAVLNISVVADEDCEIILLNVKRLLITCPTACEHHQKLIRNLVSVLANKILILNDKITHVGKRTTRDKLLSYLSAESIRHSSLSFDIPFDRQQLADYLCIDRAAMSTEISKLQKEGFIKTNRNHFELQLSIIKKKNYTI,not soluble
4,KDGDFLDMDWHGPNDADAPLVLVLHGLTGSSNSPYVAGLQKAMAAKGWASVALNWRGCSGEPNLLSRSYHSGASEDLAEVIAHLRLLRPLAALYAVGYSLGGNVLLKYLGESGKHSELLGAVAVSVPFRLDECANRIGQGFSKVYQRHFMREMLTYIRDKQQRFQHEGLTEGLAELSALGSLENMRTFWDFDGRVTAPLHGFVDATDYYRRASSRYYLGQIETPTLIIQSRDDPFVFPHSLPEPGELSACTEFELHAKGGHVGFVDGSLRNPTYYLERRIPSWL,not soluble
5,MGSDKIHHHHHHMFEKRHRITLLFNANKAYDRQVVEGVGEYLQASQLEWDIFIEEDFRARIENIKEWLGDGVIADYDDPEIEKLLADVHVPIVGVGGSYHQPEQYPPVHYIATDNAALVESAFLHLKEKGVHRFAFYGLPASSGKRWAVEREYAFCQLVAKEKYRGVVYQGLETAPENWQHAQNRLADWLQTLPPQTGIIAVTDARARHVLQACELLHIPVPEKLCVIGIDNEELTRYLSRVALSSVAQGTRQMGYQAAKLLHRLLNNEALPLQRQLIPPMRVVERRSTDYRSLNDPSVIQAMHYIRNNACKGIKVEQVLDAVGISRSNLEKRFKEEVGETIHTVIHSEKLEKARSLLVSTSLSINEISQMCGYPSLQYFYSVFKKEYDVTPKEYRDRHSEVML,not soluble
6,MFRIGQGFDVHEFAEGRPLIIGGITIPHEKGLIGHSDADVLLHTIADACLGAIAAGDIGKHFPDTDPAFKDADSAVLLQKVWEFVREQGYELGNLDCTIIAQKPKMAPHIESMRKRISELLETSIDNINVKATTTEKLGFTGREEGIASQAVVLLQKK,not soluble
7,DFKLDFKDIKGQEKAKRACMIAALGMHNILFEGSPGSGKSMCAKRLVYIMPPQSLSEILMQNAYMSLDSKDCEFTKIRAFRHPHHTSTRASIFGGGTKNARIGEVALANGGVLFFDEFPHFNKQIIESLREPLEDHKIHISRVNSKITYETKFSFIAAQNPCPCGNL,not soluble
8,MAHHHHHHMALISQSFAERYAELVARVPTHTELLLDVQRREVGERKALEEMCQVAFQDVLHVAGVMIADKKALGRGALAHRNRFEVALYKKQTAVWFQAAPPRKVALPTTRPLHGFPHAAFAELCQEERELRQWHYGVERRLREHIEEACGRAWFFLNVINETARSESLSRQRLQHEEDEDFTAIKQSFFRAVPADYYRNVVIARYGQTISAIEQAKDLTFEELEEKVRAALMEEEEASWRSAYQYLQDMYDAQLFALNHREVLGRYELEEEERNTLFPLILQCCREDFGIVFYHIPALALHFNSSQPCLRALCVAQLQEAPRRMAATRSRFSWIPAFDLAGMASELGLEEDGDEIEDSAEGETQEAEGSTDGGDDLHNALPPPVDDMPPINTASTMVFEPEVGSSKVPEPETKREEAEVDTSQSAVVALAQRTHEESVLATEMEEHVPVSCAGEENE,soluble
9,APSYRVKRADIATCTEAAVVNAANARGTVGDGVCRAVAKKWPSAFKGAATPVGTIKTVMCGSYPVIHAVAPNFSATTEAEGDRELAAVYRAVAAEVNRLSLSSVAIPLLSTGVFSGGRDRLQQSLNHLFTAMDATDADVTIYCRDKSWEKKIQEAIDMRTAVELLNDDVELTTDLVRVHPDSSLVGRKGYSTTDGSLYSYFEGTKFNQAAIDMAEILTLWPRLQEANERICLYALGETMDNIGSKCPVNDSDSSTPPRTVPCLCRYAMTAERIARLRSHQVKSMVVCSSFPLPKYHVDGVQKVKCEKVLLFDPTVPSVVSPRKYAASTTDHSDRSLRGFDLDWTTDSSSTASDTMSLPSLQSCDIDSIYEPMAPIVVTADVHPEPAGIADLAADVHPEPADHVDLENPIPPPRPKRAAYLASRAAERPVPAPRKPTPAPRTAFRNKLPLTFGDFDEHEVDALASGITFGDFDDVLRLGRAGA,not soluble
10,MSLKPINVVIIENENISRVGAAAILSETGKIQVCGLAKTGKEGIETVDQQKPDIVVINIDLPDINGTDVISLIKCKHTSIKIVVMTANSSRDTINAAISNGADCYYCKNNAREEVGERFIEAVMAAYNNESWIDPTINRILIDNLRSNDTADRDSLDLLSDFSNKEITVLKLAAGGMKNNEIANVMYVSEGTVRSYLHNSFIKLGVKDRLNAIREAIRLGILSFADEGHHHHHH,soluble
11,MGSDKIHHHHHHMHFNAPSYPKQWFDTKSAGTPVVILTGMGCSYEEWYEVIQSLRPAHRILSFHRHSWKEGDGIHRTGHAIQQLQTLLSGSNVDEPILLIGHSYGGLIAQEFTKLFPERIKGLILVDSTSVDLHELDALDTPVLDAVSSDAAWQALCRDYAIKTKEQLKQLLQPVLTGAQKRLPQAVQDALVDFQTEPDLYAMMDSEVEHWKTDAARIRTGPFPDVPLIVIGRDPELSIQDGINDGLPEDELRQVEETWHRLVLRQATLTKQADFITATGAGHAIHLDRPDLVISAVTKLDVT,not soluble
12,MSLEASLLKKNQSIELTIEDLTHDGSGVGKIDGYPFFIPNTLPGEKVTAKIIKLNKNYGFARMENIETVSANRVEPPCAVYSKCGGCSLQHLSYDGQLEFKRNQVEETMKRIGKLNVEVPETLGMENPWRYRNKSQVPVGFVNGKLTAGFYQKRSHAIIDMSTCLIHNEQGDFAVQKTREILAKYGTEPYDEQTGKGDIRHIMTRFAHTTGQLMIVLVTTKERMPFKEEIVRDLVEQLELTSIVQNINPHKTNVIFGDRTKTLWGKDIIEDTIHGIRFAISARSFYQVNPLQTEVLYQQAIDAAELTGEETVIDAYCGIGSISLCLAKKAKHVYGVEIVDQAIQDARANAELNELANTTFETGKAEEVIPSWYKAGIVADVLVVDPPRKGCDEKLLETILAMKPKKVVYVSCNPGTLARDMKILTDGGYVAKKVQPVDMFPMTTHIEAVTVLHLNEGHHHHHH,soluble
13,MEYKPIRKVVSGNYAAAYAALHARVQVVAAYPITPQTSIIEKIAEFIANGEADIQYIPVESEHSAMAACIGASATGARTFTATSAQGLALMHEMLHWAAGARLPIVMVDVNRAMAPPWSVWDDQTDSLSQRDTGWMQFYAENNQEVYDGVLMAYKVAETVNVPAMVVESAFILSHTYDVVEMIPQELVDEFLPPRKPLYSLANFDEPIAVGALATPNDYYEFRYKLAKAHEEAKKVIKEVGKEFGERFGRDYSQMIETGYIDDADFVFMGMGSLMGTVKEAVDLLRKEGYKVGYAKVRWFRPFPKEELVEIAESVKGIAVLDRNFSFGQEGILFTESKGALYNSSAHPLMKNYIVGLGGRDVTVKDIKAIADDMKKVIESGKVDKEVVWYHLKR,not soluble
14,MGSSTSTPAPPPKKNKPEGRKADNQILNSYQKSIVRNAWRHMSQKGPSNCGSTITRRMMARKSTIGDILDRSTLDYHNLQIVEFLQKVMQSLDEPDKISKLCQEIGQKHAKYRRSKGMKIDYWDKLGEAITETIREYQGWKIHRESLRAATVLVSYVVDQLRFGYSRGLHVQGSRETKEDDEE,not soluble
15,MSLNILISGIHGFVGSNFIRALKDKHTLYGLDIVSPAKEGVVTTFSWQDFEPTSFPFQTLPQFDAIIHLAGKAHDTKKQSAAQSYFDINTGLTQKIFDFFLESSAKKFIFFSSVKAAADSVVGDVLTEDVIPTPVGPYGESKIKAEEYIKNHFMFPTSSISEDRSLRLEKEKGRIPKNKQVYILRPCMIHGPGNKGNLNLLYNVVKKGIPWPLGDFDNRRSFTSIDNLCYVIEGLLNQDVPTGIYHMGDDEALSTNELIGIMCEAMGKKPHIWKMNKRVMEGCAGLGTLMHLPLNTERLRKLTENYVVSNAKIKAALGIDKLPVTAKEGLMKTIRSFEETKEGHHHHHH,soluble
16,MHHHHHHENLYFQSNAMAKSRLLLSELLDQLSFALCIVRNDYVIVKVNEYFESRVIFDGETMQGKNILELFPESADYLKRKIDTALVIESSSFSSWEQKPHLLPFKSSRPVSGEEEQMYQNLEVIPIHSEDGTIEHVCLCVYDVTIQASQQQ,soluble
17,MPHFNFDYQEFLMMVQHLKRRPLSRYLKDFKHSQTHCAHCRKLLDRITLVRDGKIVNKIEISRLDTLLDEKGWQTEQQSWAALCRFCGDLHCKTQSDFFDIIGFKKFLFEQTEMSPGTVREYVVRLRRLGNHLHEQNISLDQLQDGFLDEILAPWLPTTSTNNYRIALRKYQHYQRQTCTGLVQKSSSLPASDIY,not soluble
18,MRRVLVGAAALITALLVLTGCTKSISGTAVKAGGAGVPRNNNSQERYPNLLKECEVLTTDILAKTVGADPLDIQSTFVGAICRWQAANPAGLIDITRFWFEQGSLSNERKVAEGLKYQVETRAIQGVDSIVMRTGDPNGACGVASDAAGVVGWWVNPQAPGIDACGQAIKLMELTLATNA,soluble
19,MGSDKIHHHHHHMTSFVLSSKNAFDYLILQGLCTQNEKSLSKIELVPAKNFNLLISLPDNRKLLIKQEPHKREGKTSGEFLKEWRVHNFLQTFPELSDIRSYFSEAVHFDPENSIFVFNYLTNYRDLMDFYVERNLKLFPIKIAMLVGTTLASIHRLSIDRQEYQEFFLNKNIFGQGIPNLNLGMDRVSPAVFGKLPTDGLKFLSLYQRYDSLGQAIAELNNALIPCCLTHNDLKLNNILLSLNWEEAAFNESSSDESIIRLIDWERGAWGDPASDLGTLIASYLQLWLHSMITSKTMAIQESLRLATTPLHLLQPSIRELVIAYLSAFPEIIELHPDFLQRVMQFCGFALIKSIQAKLQHEKTFGNKGICILQVAKSLLCRPEASIPTIFGVDASDLSPINLSPASK,not soluble
20,MGSDKIHHHHHHMKGFITNIQRMSIHDGPGIRSTIFLKGCNLRCKWCHNPETWSMKPQLQYIEDKCIHCFSCITVCEYEVLFIDSNRLSIHRERCTDCGKCTERCTSGALSWIGKEVDSSDIIHEILQDLIYYQKSGGGITLSGGEPLQQKDFALDILQKCREHRIHTAVETNLLTDVNTLEAFLPWVDLWMCDFKMADDTLHRKWTGHSNVPIIKNLEFLAKQAVPLTIRTPVIPNVNDSEEAIESICRFIRQLPNQPAYELLGFHSLGFVKFENLGMKNPLSNSAFLKKGQLQKLKEILIRYNLNNNKK,not soluble
